Test results from article PMC11814294 (2025).

Biological target: GST-His-ZTL (Arabidopsis thaliana, UniProt Q94BT6 1-609, RED-NHS 2nd Generation fluorescent label (in the MST assay only))
Experiment: MST

GST-His-ZTL, sequence (Q94BT6 whole entry): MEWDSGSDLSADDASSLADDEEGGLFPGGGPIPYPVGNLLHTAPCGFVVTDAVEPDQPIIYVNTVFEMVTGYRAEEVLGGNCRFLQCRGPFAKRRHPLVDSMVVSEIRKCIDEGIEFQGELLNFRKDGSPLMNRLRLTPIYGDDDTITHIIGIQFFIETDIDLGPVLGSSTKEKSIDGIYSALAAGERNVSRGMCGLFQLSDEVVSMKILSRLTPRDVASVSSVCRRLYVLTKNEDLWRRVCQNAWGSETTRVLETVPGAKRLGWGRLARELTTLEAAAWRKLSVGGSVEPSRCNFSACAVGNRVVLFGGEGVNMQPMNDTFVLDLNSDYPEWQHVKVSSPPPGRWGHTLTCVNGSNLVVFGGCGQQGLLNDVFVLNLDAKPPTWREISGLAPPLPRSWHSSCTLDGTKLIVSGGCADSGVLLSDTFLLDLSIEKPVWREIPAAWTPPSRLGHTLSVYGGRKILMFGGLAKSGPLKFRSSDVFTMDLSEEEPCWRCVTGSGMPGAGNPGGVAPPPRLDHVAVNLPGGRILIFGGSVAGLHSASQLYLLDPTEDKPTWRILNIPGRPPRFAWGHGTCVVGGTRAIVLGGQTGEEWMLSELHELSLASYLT

B1: His-CHE (natural protein)
chain: not shown
Work on B1 yielded a Kd of 190 nM.
